Source: patent US20170183390A1 (published 2017)
Blank lines part the entries; values can stand above or below the binder they belong to. Ends that are not written are not given here. * marks the point of attachment. FITC = O=C1OC2(c3ccc(O)cc3Oc3cc(O)ccc32)c2ccc(NC(=S)*)cc21

What was measured:
[1] = target: T1, soluble αVβ6 headpiece, disulfide-linked (αV headpiece residues 1-594 with M400C); β6 headpiece residues 1-474 … (UniProt P06756 31-624; P18564 18-491, Interchain disulfide between αV Cys-400 and β6 Cys-270.); assay: fluorescence anisotropy; pH 9.0
T1 alpha: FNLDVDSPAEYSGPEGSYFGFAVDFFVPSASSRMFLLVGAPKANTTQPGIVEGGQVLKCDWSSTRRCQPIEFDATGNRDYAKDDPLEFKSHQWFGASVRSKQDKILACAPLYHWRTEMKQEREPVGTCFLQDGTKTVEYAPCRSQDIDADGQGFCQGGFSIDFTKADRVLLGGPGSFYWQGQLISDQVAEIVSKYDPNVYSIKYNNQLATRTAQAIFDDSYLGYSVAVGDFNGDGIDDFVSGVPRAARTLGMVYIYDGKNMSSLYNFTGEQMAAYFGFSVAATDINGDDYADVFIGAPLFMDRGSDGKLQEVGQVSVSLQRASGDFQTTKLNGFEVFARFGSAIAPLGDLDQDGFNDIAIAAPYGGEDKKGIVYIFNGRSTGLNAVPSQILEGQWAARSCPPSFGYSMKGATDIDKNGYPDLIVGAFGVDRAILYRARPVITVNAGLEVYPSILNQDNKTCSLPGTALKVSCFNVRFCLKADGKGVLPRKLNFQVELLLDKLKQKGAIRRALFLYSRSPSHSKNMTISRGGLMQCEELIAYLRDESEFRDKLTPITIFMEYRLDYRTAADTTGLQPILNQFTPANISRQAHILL
T1 beta: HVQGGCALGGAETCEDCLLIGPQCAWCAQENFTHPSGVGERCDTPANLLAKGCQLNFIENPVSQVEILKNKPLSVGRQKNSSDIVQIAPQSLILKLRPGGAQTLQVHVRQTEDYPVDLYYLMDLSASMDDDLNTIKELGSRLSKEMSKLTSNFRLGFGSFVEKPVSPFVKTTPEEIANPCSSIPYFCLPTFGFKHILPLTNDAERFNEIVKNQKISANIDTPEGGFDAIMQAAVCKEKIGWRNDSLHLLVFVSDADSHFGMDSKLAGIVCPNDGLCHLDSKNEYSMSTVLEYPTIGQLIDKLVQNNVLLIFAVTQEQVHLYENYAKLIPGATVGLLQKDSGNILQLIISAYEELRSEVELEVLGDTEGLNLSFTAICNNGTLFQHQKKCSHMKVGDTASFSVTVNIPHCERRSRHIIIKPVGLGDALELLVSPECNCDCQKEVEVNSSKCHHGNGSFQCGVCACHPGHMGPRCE

[2] = target: T1, soluble αVβ6 headpiece, …; assay: fluorescence anisotropy; pH 5.0
[3] = target: T1, soluble αVβ6 headpiece, …; assay: fluorescence anisotropy; pH 6.0
[4] = target: T1, soluble αVβ6 headpiece, …; assay: fluorescence anisotropy; pH 7.0
[5] = target: T2, soluble αVβ6 headpiece, disulfide-linked (αV headpiece residues 1-594 with M400C); β6 headpiece residues 1-474 … (human, UniProt P06756 31-624; P18564 18-491, Interchain disulfide between αV Cys-400 and β6 Cys-270.); assay: fluorescence anisotropy, saturation binding, Mn2+/Ca2+
T2 construct: The 3C site, ACID/BASE coiled-coils, Strep-II tag and His tags were cut off with 3C protease; The two chains are linked by the introduced disulfide bond; also called modified integrin αVβ6 headpiece dimer; full headpiece
Experimental: (§1) (SEQ ID NO: 68), was synthesized. […] By competition binding assay, the affinities of different ligands were measured.
(§2) Fluorescence anisotropy. […] Binding affinities were calculated as described in Ref. 23.

[6] = target: T1, soluble αVβ6 headpiece, …; assay: fluorescence anisotropy; pH 8.0
[7] = target: T2, soluble αVβ6 headpiece, …; assay: fluorescence anisotropy, saturation binding, 1 mM Mg2+/Ca2+
Experimental: as §1, §2

[8] = target: T1, soluble αVβ6 headpiece, …; assay: fluorescence anisotropy competition
[9] = target: T2, soluble αVβ6 headpiece, …; assay: fluorescence anisotropy, competition with FITC-GRGDLGRL on the αVβ6 headpiece
Experimental: (§3) Ligands bind to the integrin headpiece, which contains the α-subunit β-propeller domain and thigh domain, and the β-subunit βI, hybrid, PSI, and EGF1 domain. […] (SEQ ID NO: 68), peptide affinity for the αVβ₆ and αVβ₃ headpiece was measured with fluorescence anisotropy.
as §2

[10] = target: T3, soluble αVβ3 headpiece, disulfide-linked (αV headpiece residues 1-594 with M400C); β3 headpiece residues 1-472 … (UniProt P06756 31-624; P05106 27-498, Interchain disulfide between αV Cys-400 and β3 Cys-267.); assay: fluorescence anisotropy competition
T3 alpha: T1 alpha
T3 beta: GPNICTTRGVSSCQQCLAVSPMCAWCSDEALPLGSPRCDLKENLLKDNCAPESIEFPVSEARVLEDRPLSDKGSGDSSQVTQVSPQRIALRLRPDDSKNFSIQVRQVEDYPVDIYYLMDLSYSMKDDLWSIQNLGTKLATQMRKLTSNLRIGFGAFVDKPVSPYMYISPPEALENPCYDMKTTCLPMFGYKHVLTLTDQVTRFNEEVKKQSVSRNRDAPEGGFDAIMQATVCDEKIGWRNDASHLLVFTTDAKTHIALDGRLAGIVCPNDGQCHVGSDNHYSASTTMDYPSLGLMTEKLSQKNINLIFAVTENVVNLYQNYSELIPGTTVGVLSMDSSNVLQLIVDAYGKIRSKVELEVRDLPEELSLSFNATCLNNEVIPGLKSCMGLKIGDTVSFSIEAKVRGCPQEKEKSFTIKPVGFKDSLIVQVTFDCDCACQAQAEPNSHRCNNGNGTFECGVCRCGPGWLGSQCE

[11] = target: T2, soluble αVβ6 headpiece, …; assay: crystal structure, peptide soaked into αVβ6 headpiece crystals
Experimental: αVβ₆ headpiece crystallization, data collection and structure determination. αVβ₆ crystals in hanging drops were formed with 3 mg/ml αVβ₆ headpiece in 20 mM Tris-HCl pH 8.0, 150 mM NaCl, 1 mM CaCl₂ and 1 mM MgCl₂ buffer (1 μl) and 1 μl reservoir solution of 20% PEG 4000, 0.1 M sodium cacodylate pH 6.0, 0.2 M ammonium sulfate. Identical vol:vol mixture of the protein and crystallization buffers yields a pH of 6.5. […] Immediately prior to flash freezing in liquid N₂, crystals were dipped in reservoir solution containing 25% glycerol with or without peptide, MgCl₂, and CaCl₂ each at 0.25 mM.

[12] = target: T4, soluble αVβ3 headpiece, disulfide-linked (αV headpiece residues 1-594 with M400C); β3 headpiece residues 1-472 … (human, UniProt P06756 31-624; P05106 27-498, Interchain disulfide between αV Cys-400 and β3 Cys-267.); assay: fluorescence anisotropy, competition with FITC-GRGDLGRL on the αVβ3 headpiece
T4 construct: tags and coiled-coils cut off with 3C protease
Experimental: as §3, §2

Binder: HGRGDLGRLK
Kd [8]: 20.3 nM

Binder: RRGDLATIH (also called pro-TGF-β1 peptide) [nonapeptide containing RGD from pro-TGF-β1]
Kd [9]: 10.3 nM

Binder: HGRGDLGR
Kd [8]: 296 nM

Binder: TSGDQKTIK (also called pro-TGF-β2 peptide) [homologous peptide from pro-TGF-β2, which has SGDQ in place of RGDL of pro-TGF-β1]
Kd [9]: 8500 nM
fold lower affinity than the pro-TGF-β1 and pro-TGF-β3 nonapeptides [9]: 1000 fold
Kd [10]: 4800 nM

B1: pro-TGF-β3 undecapeptide Ac-HGRGDLGRLKK-NH2 (peptide)
peptide: Ac-HGRGDLGRLKK-NH2
notes: also called Pro-TGF-β3 peptide; TGF-β3 peptide
Kd [8]: 7.3 nM
binding result [11]: binds

B2: nonapeptide containing RGD from pro-TGF-β3 (GRGDLGRLK) (peptide)
peptide: GRGDLGRLK
notes: also called pro-TGF-β3 peptide; TGF-β3 nonapeptide
Kd [9]: 8.5 nM
Kd [10]: 2300 nM
fold lower affinity than for αVβ6 [12]: 1000 fold

Binder: HGRGDL
Kd [8]: 966 nM

The remaining lines, values ahead:

Kd [1]: 27.4 nM
Kd [2]: 3810 nM
Kd [3]: 2000 nM
Kd [4]: 212 nM
Kd [5]: 10 nM
Kd [6]: 84.6 nM
Kd [7]: 100 nM
Binder: {FITC}-GRGDLGRL (also called the probe) [FITC-GRGDLGRL (FITC-pro-TGF-β3 peptide, fluorescence probe)]

Kd [8]: 691 nM
Binder: HGRGDLG

Kd [8]: 28.4 nM
Binder: HGRGDLGRL

Kd [8]: 8900 nM
Binder: HGRGD
